In patent publication US20180155451A1 (published 2018):

T1: FcγRIIa H (FcγRIIa type H, His at position 131), extracellular domain with C-terminal His tag (human, UniProt P12318 34-217)
T1 construct: extracellular domain; Expressed in FreeStyle293 cells; analyte in the Biacore assay; also called FcgRIIa H; 2aH; not shown: His tag at the C terminus
T1 sequence (looked up): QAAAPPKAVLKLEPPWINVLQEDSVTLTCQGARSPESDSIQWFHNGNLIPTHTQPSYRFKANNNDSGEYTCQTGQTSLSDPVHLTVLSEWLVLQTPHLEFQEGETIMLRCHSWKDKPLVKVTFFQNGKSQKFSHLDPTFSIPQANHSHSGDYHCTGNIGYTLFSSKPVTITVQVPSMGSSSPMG

T2: FcγRIIb, extracellular domain with C-terminal His tag (human, UniProt P31994 43-217)
T2 construct: extracellular domain; soluble receptor used as Biacore analyte; also called 2b; FcgRIIb
T2 sequence (looked up): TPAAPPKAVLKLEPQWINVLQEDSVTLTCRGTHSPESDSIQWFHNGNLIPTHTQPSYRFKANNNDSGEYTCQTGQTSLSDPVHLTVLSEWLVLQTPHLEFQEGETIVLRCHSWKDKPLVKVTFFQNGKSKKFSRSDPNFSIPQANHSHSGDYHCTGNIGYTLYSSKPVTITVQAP

T3: FcγRIIa R (FcγRIIa, allotype R, Arg at position 131), extracellular domain with C-terminal His tag (human, UniProt P12318 34-217)
T3 construct: extracellular domain; soluble receptor used as Biacore analyte; also called 2aR; FcgRIIa R
T3 sequence (looked up): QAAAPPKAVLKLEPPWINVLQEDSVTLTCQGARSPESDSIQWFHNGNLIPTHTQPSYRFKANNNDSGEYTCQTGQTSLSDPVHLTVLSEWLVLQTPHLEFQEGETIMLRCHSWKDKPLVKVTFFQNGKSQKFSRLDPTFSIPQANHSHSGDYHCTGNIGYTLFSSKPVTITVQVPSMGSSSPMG


How the values were obtained:
[1] = biological target: T1, FcγRIIa H (FcγRIIa type H, His at …); experiment: SPR Biacore, captured antibody, FcgR analyte; GpH7-A5/GpH7-B3/GpL16-k0 = 100
[2] = biological target: T1, FcγRIIa H (FcγRIIa type H, His at …); experiment: SPR Biacore; He/Con_2aH divided by He/Con_2b (reference: FcgRIIb)
[3] = biological target: T2, FcγRIIb, extracellular domain with …; experiment: Biacore SPR; binding relative to GpH7-A5/GpH7-B3/GpL16-k0 (=100)
Method: (§1) The heterodimerized antibodies He Abs in which one of the H chains was introduced with an alteration were assayed for their binding activities to each activating FcγR and inhibitory FcγR according to the method described in Example 4. […] The activating FcγRs in FIGS. 26, 27, 28, and 29 are FcγRIa, FcγRIIa (R), FcγRIIa (H), and FcγRIIIa, respectively.
(§2) Analysis of interaction between objective antibody and the FcγR was carried out using Biacore T100 (GE Healthcare). HBS-EP+ (GE Healthcare) was used as the running buffer, and the measurement temperature was set to 25° C. Chips produced by immobilizing the antigen peptide by the amine coupling method to a Series S Sencor Chip CM5 (GE Healthcare), or alternatively, chips produced by allowing preliminarily biotinylated antigen peptides to interact with and immobilize onto a Series S Sensor Chip SA (certified) (GE Healthcare) were used. Antibodies of interest were captured onto an antigen peptide-immobilized chip, and allowed to interact to each FcγR diluted with running buffer. To regenerate and repeatedly use the chip, the antibodies captured on the chip were washed off by reacting 10 mM glycine-HCl, pH 1.5.

[4] = biological target: T3, FcγRIIa R (FcγRIIa, allotype R, Arg at …); experiment: as above
Method: as §1, §2

[5] = biological target: T3, FcγRIIa R (FcγRIIa, allotype R, Arg at …); experiment: Biacore SPR; He/Con_2aR divided by He/Con_2b (FcγRIIb)
Method: as §1, §2

He/Con_2aH [1] | He_2aH/2b (IIaH/IIb) [2] | He/Con_2b (IIb binding) [3] | He/Con_2aR (IIaR binding) [4] | IIaR/IIb (He_2aR/2b) [5] | Binder
– | – | – | 2.5 % of control | 0.33 | heterodimerized antibody GpH7-A5/GpH7-B3 variant L328_11K/GpL16-k0 (antibody, human IgG1, kappa, He Ab: anti-glypican-3 IgG1, alteration in one H chain only; also called He Ab) heavy 1: not shown heavy 2: not shown light: DIVMTQSPLSLPVTPGEPASISCQASESLVHSNRNTYLHWYLQKPGQSPQLLIYKVSNRFSGVPDRFSGSGSGTDFTLKISRVEAEDVGVYYCSQNTHVPPTFGQGTKVEIERTVAAPSVFIFPPSDEQLKSGTASVVCLLNNFYPREAKVQWKVDNALQSGNSQESVTEQDSKDSTYSLSSTLTLSKADYEKHKVYACEVTHQGLSSPVTKSFNRGEC
– | – | – | 5 % of control | 0.54 | heterodimerized antibody GpH7-A5/GpH7-B3 variant L328_12R/GpL16-k0 (antibody, human IgG1, kappa, He Ab: anti-glypican-3 IgG1, alteration in one H chain only; also called He Ab) heavy 1: not shown heavy 2: not shown light: DIVMTQSPLSLPVTPGEPASISCQASESLVHSNRNTYLHWYLQKPGQSPQLLIYKVSNRFSGVPDRFSGSGSGTDFTLKISRVEAEDVGVYYCSQNTHVPPTFGQGTKVEIERTVAAPSVFIFPPSDEQLKSGTASVVCLLNNFYPREAKVQWKVDNALQSGNSQESVTEQDSKDSTYSLSSTLTLSKADYEKHKVYACEVTHQGLSSPVTKSFNRGEC
– | – | – | 6 % of control | 0.67 | heterodimerized antibody GpH7-A5/GpH7-B3 variant A327_12R/GpL16-k0 (antibody, human IgG1, kappa, He Ab: anti-glypican-3 IgG1, alteration in one H chain only; also called He Ab) heavy 1: not shown heavy 2: not shown light: DIVMTQSPLSLPVTPGEPASISCQASESLVHSNRNTYLHWYLQKPGQSPQLLIYKVSNRFSGVPDRFSGSGSGTDFTLKISRVEAEDVGVYYCSQNTHVPPTFGQGTKVEIERTVAAPSVFIFPPSDEQLKSGTASVVCLLNNFYPREAKVQWKVDNALQSGNSQESVTEQDSKDSTYSLSSTLTLSKADYEKHKVYACEVTHQGLSSPVTKSFNRGEC
– | – | 127 % of control | 98 % of control | 0.77 | heterodimerized antibody GpH7-A5/GpH7-B3 variant A327_07I/GpL16-k0 (antibody, human IgG1, kappa, He Ab: anti-glypican-3 IgG1, alteration in one H chain only; also called He Ab) heavy 1: not shown heavy 2: not shown light: DIVMTQSPLSLPVTPGEPASISCQASESLVHSNRNTYLHWYLQKPGQSPQLLIYKVSNRFSGVPDRFSGSGSGTDFTLKISRVEAEDVGVYYCSQNTHVPPTFGQGTKVEIERTVAAPSVFIFPPSDEQLKSGTASVVCLLNNFYPREAKVQWKVDNALQSGNSQESVTEQDSKDSTYSLSSTLTLSKADYEKHKVYACEVTHQGLSSPVTKSFNRGEC
– | – | 223 % of control | 156 % of control | 0.7 | heterodimerized antibody GpH7-A5/GpH7-B3 variant G237_09D/GpL16-k0 (antibody, human IgG1, kappa, He Ab: anti-glypican-3 IgG1, alteration in one H chain only; also called He Ab) heavy 1: not shown heavy 2: not shown light: DIVMTQSPLSLPVTPGEPASISCQASESLVHSNRNTYLHWYLQKPGQSPQLLIYKVSNRFSGVPDRFSGSGSGTDFTLKISRVEAEDVGVYYCSQNTHVPPTFGQGTKVEIERTVAAPSVFIFPPSDEQLKSGTASVVCLLNNFYPREAKVQWKVDNALQSGNSQESVTEQDSKDSTYSLSSTLTLSKADYEKHKVYACEVTHQGLSSPVTKSFNRGEC

Further lines, the binder ahead of its results:

Binder | He/Con_2aH [1] | He_2aH/2b (IIaH/IIb) [2] | He/Con_2b (IIb binding) [3] | He/Con_2aR (IIaR binding) [4] | IIaR/IIb (He_2aR/2b) [5]
GpH7-A5/GpH7-B3 variant A327_12R/GpL16-k0 (antibody, human IgG1, kappa, He Ab; IgG1; mutation in one H chain only; also called He Ab) heavy 1: not shown heavy 2: not shown light: DIVMTQSPLSLPVTPGEPASISCQASESLVHSNRNTYLHWYLQKPGQSPQLLIYKVSNRFSGVPDRFSGSGSGTDFTLKISRVEAEDVGVYYCSQNTHVPPTFGQGTKVEIERTVAAPSVFIFPPSDEQLKSGTASVVCLLNNFYPREAKVQWKVDNALQSGNSQESVTEQDSKDSTYSLSSTLTLSKADYEKHKVYACEVTHQGLSSPVTKSFNRGEC | 11.3 % of HeCon Ab | 1.26 | – | – | –
heterodimerized antibody GpH7-A5/GpH7-B3 variant S267_08L/GpL16-k0 (antibody, human IgG1, kappa, He Ab: anti-glypican-3 IgG1, alteration in one H chain only; also called He Ab) heavy 1: not shown heavy 2: not shown light: DIVMTQSPLSLPVTPGEPASISCQASESLVHSNRNTYLHWYLQKPGQSPQLLIYKVSNRFSGVPDRFSGSGSGTDFTLKISRVEAEDVGVYYCSQNTHVPPTFGQGTKVEIERTVAAPSVFIFPPSDEQLKSGTASVVCLLNNFYPREAKVQWKVDNALQSGNSQESVTEQDSKDSTYSLSSTLTLSKADYEKHKVYACEVTHQGLSSPVTKSFNRGEC | – | – | 109 % of control | 72.1 % of control | 0.66
heterodimerized antibody GpH7-A5/GpH7-B3 variant A327_09D/GpL16-k0 (antibody, human IgG1, kappa, He Ab: anti-glypican-3 IgG1, alteration in one H chain only; also called He Ab) heavy 1: not shown heavy 2: not shown light: DIVMTQSPLSLPVTPGEPASISCQASESLVHSNRNTYLHWYLQKPGQSPQLLIYKVSNRFSGVPDRFSGSGSGTDFTLKISRVEAEDVGVYYCSQNTHVPPTFGQGTKVEIERTVAAPSVFIFPPSDEQLKSGTASVVCLLNNFYPREAKVQWKVDNALQSGNSQESVTEQDSKDSTYSLSSTLTLSKADYEKHKVYACEVTHQGLSSPVTKSFNRGEC | – | – | 172 % of control | 124 % of control | 0.72
heterodimerized antibody GpH7-A5/GpH7-B3 variant A327_10E/GpL16-k0 (antibody, human IgG1, kappa, He Ab: anti-glypican-3 IgG1, alteration in one H chain only; also called He Ab) heavy 1: not shown heavy 2: not shown light: DIVMTQSPLSLPVTPGEPASISCQASESLVHSNRNTYLHWYLQKPGQSPQLLIYKVSNRFSGVPDRFSGSGSGTDFTLKISRVEAEDVGVYYCSQNTHVPPTFGQGTKVEIERTVAAPSVFIFPPSDEQLKSGTASVVCLLNNFYPREAKVQWKVDNALQSGNSQESVTEQDSKDSTYSLSSTLTLSKADYEKHKVYACEVTHQGLSSPVTKSFNRGEC | – | – | 140 % of control | 110 % of control | 0.78
heterodimerized antibody GpH7-A5/GpH7-B3 variant D270_05P/GpL16-k0 (antibody, human IgG1, kappa, He Ab: anti-glypican-3 IgG1, alteration in one H chain only; also called He Ab) heavy 1: not shown heavy 2: not shown light: DIVMTQSPLSLPVTPGEPASISCQASESLVHSNRNTYLHWYLQKPGQSPQLLIYKVSNRFSGVPDRFSGSGSGTDFTLKISRVEAEDVGVYYCSQNTHVPPTFGQGTKVEIERTVAAPSVFIFPPSDEQLKSGTASVVCLLNNFYPREAKVQWKVDNALQSGNSQESVTEQDSKDSTYSLSSTLTLSKADYEKHKVYACEVTHQGLSSPVTKSFNRGEC | – | – | 13.9 % of control | 7.5 % of control | 0.54
GpH7-A5/GpH7-B3 variant L328_11K/GpL16-k0 (antibody, human IgG1, kappa, He Ab; IgG1; mutation in one H chain only; also called He Ab) heavy 1: not shown heavy 2: not shown light: DIVMTQSPLSLPVTPGEPASISCQASESLVHSNRNTYLHWYLQKPGQSPQLLIYKVSNRFSGVPDRFSGSGSGTDFTLKISRVEAEDVGVYYCSQNTHVPPTFGQGTKVEIERTVAAPSVFIFPPSDEQLKSGTASVVCLLNNFYPREAKVQWKVDNALQSGNSQESVTEQDSKDSTYSLSSTLTLSKADYEKHKVYACEVTHQGLSSPVTKSFNRGEC | 32.2 % of HeCon Ab | 4.27 | – | – | –
heterodimerized antibody GpH7-A5/GpH7-B3 variant A327_18N/GpL16-k0 (antibody, human IgG1, kappa, He Ab: anti-glypican-3 IgG1, alteration in one H chain only; also called He Ab) heavy 1: not shown heavy 2: not shown light: DIVMTQSPLSLPVTPGEPASISCQASESLVHSNRNTYLHWYLQKPGQSPQLLIYKVSNRFSGVPDRFSGSGSGTDFTLKISRVEAEDVGVYYCSQNTHVPPTFGQGTKVEIERTVAAPSVFIFPPSDEQLKSGTASVVCLLNNFYPREAKVQWKVDNALQSGNSQESVTEQDSKDSTYSLSSTLTLSKADYEKHKVYACEVTHQGLSSPVTKSFNRGEC | – | – | 113 % of control | 88.9 % of control | 0.79
GpH7-A5/GpH7-B3 variant L328_12R/GpL16-k0 (antibody, human IgG1, kappa, He Ab; IgG1; mutation in one H chain only; also called He Ab) heavy 1: not shown heavy 2: not shown light: DIVMTQSPLSLPVTPGEPASISCQASESLVHSNRNTYLHWYLQKPGQSPQLLIYKVSNRFSGVPDRFSGSGSGTDFTLKISRVEAEDVGVYYCSQNTHVPPTFGQGTKVEIERTVAAPSVFIFPPSDEQLKSGTASVVCLLNNFYPREAKVQWKVDNALQSGNSQESVTEQDSKDSTYSLSSTLTLSKADYEKHKVYACEVTHQGLSSPVTKSFNRGEC | 42.5 % of HeCon Ab | 4.6 | – | – | –
heterodimerized antibody GpH7-A5/GpH7-B3 variant G236_09D/GpL16-k0 (antibody, human IgG1, kappa, He Ab: anti-glypican-3 IgG1, alteration in one H chain only; also called He Ab) heavy 1: not shown heavy 2: not shown light: DIVMTQSPLSLPVTPGEPASISCQASESLVHSNRNTYLHWYLQKPGQSPQLLIYKVSNRFSGVPDRFSGSGSGTDFTLKISRVEAEDVGVYYCSQNTHVPPTFGQGTKVEIERTVAAPSVFIFPPSDEQLKSGTASVVCLLNNFYPREAKVQWKVDNALQSGNSQESVTEQDSKDSTYSLSSTLTLSKADYEKHKVYACEVTHQGLSSPVTKSFNRGEC | – | – | 167 % of control | 106 % of control | 0.64
